Series [1] deals with T1, CHK2 (UniProt O96017 O96017:1-543). Kind of series: EMSA; F-EMSA, Hill fit; 25 mM Tris pH 8.0, 10 mM NaCl, 25 mM KCl, 5 mM MgCl2, 10 ug/ml yeast tRNA, room temp; binding to contaminant not ruled out. The conditions noted are these: tags: hexahistidine; expressed in E. coli BL21(DE3)-RIPL, Ni-NTA, ~90-95% pure; label: 3'-fluorescein (fluorescein 5-thiosemicarbazide). How it is done:
(§1) The RNA samples were 3′-end labelled with fluorescein 5-thiosemicarbazide (Invitrogen) as described previously (Pagano et al. 2007). 50 μL binding reactions were prepared with 2 nM fluorescently-labelled RNA and decreasing amounts of protein (2000 to 0 nM) in binding buffer containing 0.01% IGEPAL CA630, 10 μg/ml yeast tRNA, and 3 U of SUPERase•In RNase Inhibitor. Reactions were prepared in black 96-well half area microplates (Corning) and incubated at room temperature for 2 hours. The plates were scanned on a Synergy H1 microplate reader (BioTek) using the Ex: 485/20 Em: 528/20 filter set to determine the Fluorescence Polarization (FP). The polarization “P” is determined from the total parallel and perpendicular polarized fluorescence according to:
(§2) In order to confirm that the two methods had independently enriched the same aptamer, we tested the unambiguous top-ranked SELEX/RAPID candidate for CHK2 binding, hereafter referred to as C6M1. […] The calculated fraction bound curve for the gel shift is also shown in FIG. 6B as the solid line (left axis). […] In order to ensure that the observed binding was not a gel artefact, we also performed a Fluorescence Polarization (FP) assay. […]

Series [2] addresses T1, CHK2. Kind of series: FP; same samples as F-EMSA, Hill fit; 5 mM MgCl2, yeast tRNA, room temp. The conditions noted are these: tags: hexahistidine; expressed in E. coli BL21(DE3)-RIPL, Ni-NTA, ~90-95% pure; label: 3'-fluorescein (fluorescein 5-thiosemicarbazide). The method, then: as §1, §2
For orientation: A gel shift assay detects complexes by their altered migration in electrophoresis.

The values below come from patent US20150291952, “RNA APTAMER ISOLATION VIA DUAL-CYCLE (RAPID) SELECTION” (CORNELL UNIVERSITY, published 2015).

T1 sequence (O96017 whole entry, one chain of several): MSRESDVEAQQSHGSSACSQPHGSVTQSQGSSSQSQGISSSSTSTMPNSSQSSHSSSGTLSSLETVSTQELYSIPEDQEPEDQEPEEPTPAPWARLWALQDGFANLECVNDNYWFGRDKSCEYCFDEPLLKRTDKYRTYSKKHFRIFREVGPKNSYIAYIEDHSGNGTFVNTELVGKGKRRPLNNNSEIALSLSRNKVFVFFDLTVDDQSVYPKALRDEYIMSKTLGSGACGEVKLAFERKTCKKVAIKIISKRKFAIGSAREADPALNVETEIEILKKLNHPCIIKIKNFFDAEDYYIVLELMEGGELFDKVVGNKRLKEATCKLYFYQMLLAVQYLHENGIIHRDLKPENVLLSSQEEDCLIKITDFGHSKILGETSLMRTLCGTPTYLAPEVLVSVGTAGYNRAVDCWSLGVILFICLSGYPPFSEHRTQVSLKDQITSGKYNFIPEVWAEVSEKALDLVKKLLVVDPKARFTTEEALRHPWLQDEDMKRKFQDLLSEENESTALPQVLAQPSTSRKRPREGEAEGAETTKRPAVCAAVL

B1: C6M1 (ssRNA)
RNA: GGGAAUGGAUCCACAUCUACGAAUUCGAUCGGUUCCAACGCUCUGUCGCCUAAGUGAACAGAUGAAGAAAAAAUAGCCCAAUAAGAGGCAACAAUCUUUCACUGCAGACUUGACGAAGCUU
modifications: RNA transcript; SEQ:21 is the random region, assayed RNA also carries both library constant regions (reverse complement of the SEQ:22 flanks) [positions count without the 26-nt 5-prime fixed region]
On to B1, for which the Kd in series [1] is 180 nM; in series [2] it was 299 nM.

What is called Kd is the concentration at which binding is half-saturated.
